Assay results published in FireProtDB (doi:10.1046/j.1432-1327.1999.00918.x).
Where “and” joins values, the source holds several entries; their conditions need not be identical. Equal values may be shown once.

B1: Lysozyme C, P61626 (parent)
chain: MKALIVLGLVLLSVTVQGKVFERCELARTLKRLGMDGYRGISLANWMCLAKWESGYNTRATNYNAGDRSTDYGIFQINSRYWCNDGKTPGAVNACHLSCSALLQDNIADAVACAKRVVRDPQGIRAWVAWRNRCQNRDVRQYVQGCGV

Variants of: B1
Settings: Homo sapiens, Thermal, DSC, glycine 0.05 M, reversible: yes, structure 1LZ1, whole UniProt chain shown

Variant | Tm (pH 2.58) [°C] | unfolding enthalpy (calorimetric) (pH 2.58) [kJ/mol] | unfolding enthalpy (van 't Hoff) (pH 2.58) [kJ/mol] | Tm (pH 2.7) | change of melting temperature, mutant - wild type (higher = more stable) (pH 2.7) [°C] | heat capacity change of unfolding (pH 2.7) [kcal/mol/K] | unfolding enthalpy (calorimetric) (pH 2.7) [kJ/mol] | Tm (pH 2.77) [°C] | unfolding enthalpy (calorimetric) (pH 2.77) [kJ/mol] | unfolding enthalpy (van 't Hoff) (pH 2.77) [kJ/mol] | Tm (pH 2.5) [°C] | unfolding enthalpy (calorimetric) (pH 2.5) [kJ/mol] | unfolding enthalpy (van 't Hoff) (pH 2.5) [kJ/mol] | ddG of mutation (higher = less stable) (pH 2.7, 64.9 °C) [kJ/mol] | Tm (pH 2.95) [°C] | unfolding enthalpy (calorimetric) (pH 2.95) [kJ/mol] | unfolding enthalpy (van 't Hoff) (pH 2.95) [kJ/mol] | Tm (pH 3.22) [°C] | unfolding enthalpy (calorimetric) (pH 3.22) [kJ/mol] | unfolding enthalpy (van 't Hoff) (pH 3.22) [kJ/mol]
K19A | 60.9 | 379 | 413 | 62.7 °C | -2.2 | 1.6 | 405 | 63.7 | 398 | 416 |  |  |  |  |  |  |  |  |  | 
K19M |  |  |  | 64.4 °C and 64.9 °C | -0.5 | 1.03 | 384 |  |  |  | 61.7 | 370 | 377 | 0.502 | 69.1 | 399 | 408 | 70.1 | 412 | 444
